Measured values reported in paper PMC7679444.

B1: TMEM59 peptide (residues 268–280), wild type [modified: long spacer (Tds) at the N-terminal end, used for immobilisation; long spacer (Tds) at the N-terminal end, used for immobilisation] [not stated] / GST-HA-ATG16L1(231–607) … (parent)
chain 1: PLPVEQDDDIEVIVDETSDHTEETSPVRAISRAATKRLSQPAGGLLDSITNIFGRRSVSSFPVPQDNVDTHPGSGKEVRVPATALCVFDAHDGEVNAVQFSPGSRLLATGGMDRRVKLWEVFGEKCEFKGSLSGSNAGITSIEFDSAGSYLLAASNDFASRIWTVDDYRLRHTLTGHSGKVLSAKFLLDNARIVSGSHDRTLKLWDLRSKVCIKTVFAGSSCNDIVCTEQCVMSGHFDKKIRFWDIRSESIVREMELLGKITALDLNPERTELLSCSRDDLLKVIDLRTNAIKQTFSAPGFKCGSDWTRVVFSPDGSYVAAGSAEGSLYIWSVLTGKVEKVLSKQHSSSINAVAWSPSGSHVVSVDKGCKAVLWAQY
chain 2: YVPSEKLSIYGDL

Variants of: B1
Test: peptide microarray
Conditions: with GST-HA-ATG16L1(231–607) [human], parent: 100

Variant	percent of parent (ligand 200, 50, 20 nM) [% WT]	percent of parent (ligand 800, 600, 400 nM) [% WT]
chain 2 P3H	225	145
chain 2 V2A	47	50
chain 2 E5Q	214	167
chain 2 P3E	89	86
chain 2 V2R	41	47
chain 2 V2S	50	56
chain 2 L7T	38	73
chain 2 E5G	158	142
chain 2 L7N	46	75
chain 2 S4Y	320	188
chain 2 S4P	63	65
chain 2 K6V	50	56
chain 2 V2M	31	28
chain 2 L7R	32	59
chain 2 L7Y	69	87
chain 2 Y1I	75	79
chain 2 Y1T	17	17
chain 2 V2H	55	67
chain 2 S8L	56	74
chain 2 P3L	493	189
chain 2 P3Y	134	104
chain 2 E5R	224	165
chain 2 Y1E	13	13
chain 2 V2Y	80	90

Variant	percent of parent (ligand 200, 50, 20 nM) [% WT]	percent of parent (ligand 800, 600, 400 nM) [% WT]
chain 2 K6Q	3	4
chain 2 P3T	518	191
chain 2 P3F	472	168
chain 2 Y1Q	10	12
chain 2 S8G	56	57
chain 2 S4L	163	157
chain 2 S8P	50	78
chain 2 L7S	31	58
chain 2 Y1D	10	12
chain 2 S8E	6	11
chain 2 K6L	35	51
chain 2 S4E	38	45
chain 2 P3A	328	168
chain 2 S4G	49	64
chain 2 E5P	92	97
chain 2 Y1L	44	41
chain 2 V2T	33	31
chain 2 S8M	21	27
chain 2 Y1V	15	16
chain 2 S4V	156	144
chain 2 L7G	54	86
chain 2 L7F	102	89
chain 2 P3W	483	188
chain 2 E5W	105	109

Variant	percent of parent (ligand 200, 50, 20 nM) [% WT]	percent of parent (ligand 800, 600, 400 nM) [% WT]
chain 2 P3I	343	172
chain 2 L7D	11	12
chain 2 E5F	22	29
chain 2 E5S	146	135
chain 2 S4H	122	106
chain 2 S8N	126	111
chain 2 S4D	33	29
chain 2 S4F	1	1
chain 2 P3V	334	176
chain 2 K6I	53	61
chain 2 P3D	104	107
chain 2 Y1H	30	28
chain 2 L7Q	11	28
chain 2 K6T	7	12
chain 2 P3Q	254	152
chain 2 E5A	86	95
chain 2 K6R	8	11
chain 2 L7W	38	112
chain 2 L7A	98	88
chain 2 S8Q	64	113
chain 2 S8T	54	67
chain 2 E5V	47	52
chain 2 V2K	101	96
chain 2 S8K	158	144

Variant	percent of parent (ligand 200, 50, 20 nM) [% WT]	percent of parent (ligand 800, 600, 400 nM) [% WT]
chain 2 L7K	22	53
chain 2 L7V	153	142
chain 2 P3G	143	131
chain 2 K6M	7	10
chain 2 K6H	28	21
chain 2 K6E	2	3
chain 2 V2L	145	134
chain 2 Y1S	29	28
chain 2 V2W	118	119
chain 2 S4N	38	30
chain 2 Y1M	12	10
chain 2 L7H	66	103
chain 2 E5T	261	179
chain 2 S4W	352	187
chain 2 K6D	7	6
chain 2 Y1F	139	121
chain 2 V2N	19	25
chain 2 V2F	250	177
chain 2 L7I	83	95
chain 2 E5N	269	183
chain 2 P3N	109	110
chain 2 S4R	110	110
chain 2 P3K	499	181
chain 2 Y1N	21	22

Variant	percent of parent (ligand 200, 50, 20 nM) [% WT]	percent of parent (ligand 800, 600, 400 nM) [% WT]
chain 2 S8R	113	115
chain 2 E5K	330	186
chain 2 E5I	27	32
chain 2 K6A	6	7
chain 2 V2D	13	18
chain 2 E5D	123	126
chain 2 V2I	96	99
chain 2 L7P	13	11
chain 2 P3S	184	138
chain 2 E5M	217	162
chain 2 S8F	175	144
chain 2 S4A	78	73
chain 2 S8D	7	9
chain 2 S8I	41	51
chain 2 K6P	7	3
chain 2 Y1R	12	17
chain 2 P3M	435	184
chain 2 S8A	55	59
chain 2 S4Q	88	94
chain 2 K6W	126	106
chain 2 V2E	9	11
chain 2 V2G	73	58
chain 2 S4K	262	180
chain 2 Y1W	120	121

Variant	percent of parent (ligand 200, 50, 20 nM) [% WT]	percent of parent (ligand 800, 600, 400 nM) [% WT]
chain 2 S4T	62	69
chain 2 Y1P	16	17
chain 2 Y1G	94	92
chain 2 Y1A	17	18
chain 2 S4I	176	155
chain 2 K6S	8	11
chain 2 L7E	3	7
chain 2 K6F	96	114
chain 2 E5L	42	51
chain 2 S4M	31	32
chain 2 L7M	39	52
chain 2 E5Y	158	148
chain 2 K6Y	105	74
chain 2 E5H	303	183
chain 2 V2P	35	41
chain 2 K6N	4	2
chain 2 P3R	216	131
chain 2 S8H	124	115
chain 2 V2Q	12	15
chain 2 K6G	6	6
chain 2 Y1K	17	19
chain 2 S8V		60
chain 2 L13M		36
chain 2 D12I		129

Variant	percent of parent (ligand 200, 50, 20 nM) [% WT]	percent of parent (ligand 800, 600, 400 nM) [% WT]
chain 2 S8Y		137
chain 2 Y10K		6
chain 2 D12V		159
chain 2 I9H		145
chain 2 G11I		1
chain 2 I9F		159
chain 2 L13R		48
chain 2 I9G		39
chain 2 D12H		179
chain 2 I9M		66
chain 2 Y10E		2
chain 2 I9T		49
chain 2 I9N		51
chain 2 I9Y		198
chain 2 I9W		200
chain 2 S8W		179
chain 2 D12Q		105
chain 2 L13F		173
chain 2 I9L		95
chain 2 L13E		60
chain 2 Y10A		4
chain 2 D12F		138
chain 2 L13S		32
chain 2 Y10F		106

Variant	percent of parent (ligand 200, 50, 20 nM) [% WT]	percent of parent (ligand 800, 600, 400 nM) [% WT]
chain 2 I9V		109
chain 2 D12G		158
chain 2 G11D		146
chain 2 Y10V		9
chain 2 L13A		50
chain 2 G11E		129
chain 2 L13N		30
chain 2 G11R		62
chain 2 L13T		5
chain 2 D12E		173
chain 2 I9Q		102
chain 2 D12M		93
chain 2 Y10Q		2
chain 2 Y10T		4
chain 2 L13K		21
chain 2 Y10P		3
chain 2 D12Y		180
chain 2 L13H		66
chain 2 Y10W		135
chain 2 G11K		127
chain 2 D12W		177
chain 2 Y10D		4
chain 2 G11H		156
chain 2 L13D		27

Variant	percent of parent (ligand 200, 50, 20 nM) [% WT]	percent of parent (ligand 800, 600, 400 nM) [% WT]
chain 2 Y10G		2
chain 2 L13I		177
chain 2 I9R		93
chain 2 G11M		40
chain 2 G11Q		31
chain 2 Y10H		3
chain 2 L13V		123
chain 2 D12K		191
chain 2 G11L		17
chain 2 L13G		54
chain 2 G11P		155
chain 2 G11F		43
chain 2 I9K		149
chain 2 D12L		110
chain 2 D12S		128
chain 2 G11W		165
chain 2 Y10R		5
chain 2 I9S		61
chain 2 Y10N		3
chain 2 G11S		103
chain 2 Y10L		36
chain 2 G11N		140
chain 2 D12T		133
chain 2 D12R		164

Variant	percent of parent (ligand 200, 50, 20 nM) [% WT]	percent of parent (ligand 800, 600, 400 nM) [% WT]
chain 2 L13Y		201
chain 2 D12N		128
chain 2 L13P		94
chain 2 L13W		196
chain 2 I9P		89
chain 2 G11A		18
chain 2 G11V		13
chain 2 D12P		145
chain 2 I9A		76
chain 2 G11Y		150
chain 2 Y10M		3
chain 2 L13Q		37
chain 2 I9D		15
chain 2 G11T		117
chain 2 Y10S		3
chain 2 I9E		96
chain 2 D12A		131
chain 2 Y10I		21
